# T1: CYP1A2 (Homo sapiens, UniProt P05177)
# T1 construct: A 1563 bp BamHI-XhoI fragment containing the human CYP1A2 gene; made in house; host or cells: Saccharomyces cerevisiae W303B, microsomes
# T1 sequence (P05177 1-516): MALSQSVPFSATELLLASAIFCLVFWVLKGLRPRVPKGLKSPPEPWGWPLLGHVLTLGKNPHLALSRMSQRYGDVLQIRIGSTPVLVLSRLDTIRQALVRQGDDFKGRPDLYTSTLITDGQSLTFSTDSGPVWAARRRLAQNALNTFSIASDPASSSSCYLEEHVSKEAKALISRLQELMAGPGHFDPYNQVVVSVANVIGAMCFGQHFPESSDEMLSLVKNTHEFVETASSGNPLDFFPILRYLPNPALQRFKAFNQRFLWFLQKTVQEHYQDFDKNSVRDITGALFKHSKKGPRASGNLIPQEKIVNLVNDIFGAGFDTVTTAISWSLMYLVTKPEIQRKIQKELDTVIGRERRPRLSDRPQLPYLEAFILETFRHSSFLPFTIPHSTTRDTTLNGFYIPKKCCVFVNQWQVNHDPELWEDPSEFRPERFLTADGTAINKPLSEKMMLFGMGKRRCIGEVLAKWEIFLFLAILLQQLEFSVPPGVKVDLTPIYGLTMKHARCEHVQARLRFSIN
# B1: ΔN1hRD-M: human P450 reductase lacking N-terminal 24 amino acids, with C-terminal 12-amino acid c-myc tag; described in WO 2007/129050; gene SEQ ID NO: 5 (protein)
# chain: MTDMILFSLIVGLLTYWFLFRKKKEEVPEFTKIQTLTSSVRESSFVEKMKKTGRNIIVFYGSQTGTAEEFANRLSKDAHRYGMRGMSADPEEYDLADLSSLPEIDNALVVFCMATYGEGDPTDNAQDFYDWLQETDVDLSGVKFAVFGLGNKTYEHFNAMGKYVDKRLEQLGAQRIFELGLGDDDGNLEEDFITWREQFWPAVCEHFGVEATGEESSIRQYELVVHTDIDAAKVYMGEMGRLKSYENQKPPFDAKNPFLAAVTTNRKLNQGTERHLMHLELDISDSKIRYESGDHVAVYPANDSALVNQLGKILGADLDVVMSLNNLDEESNKKHPFPCPTSYRTALTYYLDITNPPRTNVLYELAQYASEPSEQELLRKMASSSGEGKELYLSWVVEARRHILAILQDCPSLRPPIDHLCELLPRLQARYYSIASSSKVHPNSVHICAVVVEYETKAGRINKGVATNWLRAKEPAGENGGRALVPMFVRKSQFRLPFKATTPVIMVGPGTGVAPFIGFIQERAWLRQQGKEVGETLLYYGCRRSDEDYLYREELAQFHRDGALTQLNVAFSREQSHKVYVQHLLKQDREHLWKLIEGGAHIYVCGDARNMARDVQNTFYDIVAELGAMEHAQAVDYIKKLMTKGRYSLDVWSSSEQKLISEEDLNGSRL
# modifications: delN1hRD-M
# How the values were obtained:
# CYP2D6 = assay: Amount of CYP2D6 in yeast microsomes by CO-difference spectra, co-expressed with P450 reductase variants; assay type: cell-based, human; conditions: relative to hRD = 1; genes synthesized using yeast biased codons; yeast W303B, pSYE264
# Procedure: (§1) The hRD variant genes, (ΔN1hRD-M, ΔN1hRD-HDEL, ΔN2hRD-HDEL), were integrated into Saccharomyces cerevisiae strain W303B (MAT a leu2 his3 trp1 can1-100 ade2 trp1 ura3) using standard yeast transformation procedures as detailed below. The integrating plasmids, bearing the ΔN1hRD-M, ΔN1hRD-HDEL, ΔN2hRD-HDEL genes, were first linearised with the restriction enzyme BstEII before introducing linearised DNA into yeast cells via homologous recombination. The resultant strains were named: • a) W303B-ΔN1hRD-M, • b) W303B-ΔN1hRD-HDEL, • c) W303B-ΔN2hRD-HDEL.
# (§2) They were used for the transformation of the yeast episomal plasmids that bear the CYP2D6 and CYP1A2 genes: • 1. pSYE264 (bearing the human CYP2D6 gene), • 2. pSYE265 (bearing the human CYP1A2 gene).
# (§3) A single colony from the strains W303B-ΔN1hRD-M, W303B-ΔN1hRD-HDEL, W303B-ΔN2hRD-HDEL were picked up from a minimal medium (SD) plate (supplemented with appropriate nutrients depending on the auxotrophic markers in the yeast strain) and inoculated into 10 ml of YPD medium (2% Bacto Peptone, 1% yeast extract, 2% glucose). The cells were grown overnight at 30° C. with 220 rpm shaking. 1.5 ml of overnight cultures were centrifuged at 13,000 rpm for a few seconds to collect the cell pellets. 0.5-2 μg of transforming DNA (i.e. the CYP bearing expression plasmids, pSYE264 and pSYE265) and 100 μg of single-stranded salmon sperm DNA were added to pellets and vortexed briefly. 500 μl of PEG solution (40% PEG 3350, 0.1M lithium acetate pH 7.5, 10 mM Tris-HCl pH 7.5, 1 mM EDTA pH7.5) and 5-10% DMSO were added to transformation mixes. All mixes were incubated in a Thermo-mixer for 15 min at 25° C. with shaking at 400 rpm, and then were heat shocked for 15 min at 42° C. After 10 min, 5-10% ethanol was added. The cells were pelleted at 8000 rpm for 1 min and were washed twice in 1×TE buffer and re-suspended in 250 μl-500 μl 1×TE pH7.5. The cells were plated out on SD agar medium and incubated at 30° C. for 2-3 days.
# (§4) Recombinant yeast cells were grown in culture using the following protocol: • 1. […] On day two, once OD600 (i.e. OD measured at 600 nm) of the cultures reached 5 to 6 OD-s, the cultures were inoculated into 400 ml YPD medium (1% Bacto Peptone, 1% yeast extract, 2% glucose) with appropriate nutrients in 2-liter flask. […] On day three, after 16 hours, optical density was again measured at 600 nm after diluting the original culture 1:10. […] At the final step, supernatant was poured away and the dry pellet was frozen at −80° C. and the pellet weight was recorded. […]
# (§5) The cell pellet that had been obtained from the earlier cell culture was weighed and the weight of cell pellet was recorded. […]
# CYP1A2 [1] = assay: Amount of CYP1A2 in yeast microsomes by CO-difference spectra, co-expressed with P450 reductase variants; assay type: cell-based, human; conditions: relative to hRD = 1; yeast W303B, pSYE265
# Procedure: as §1, §2, §3, §4, §5
# yeast cells = assay: Dihydroethidium assay for ROS detection in yeast cells expressing a P450 reductase; assay type: cell-based, Saccharomyces cerevisiae; conditions: gene synthesized using yeast-biased codons compared with ΔN1hRD-M gene isolated from human liver cDNA library; FIG. 13
# Procedure: The reactive oxygen species generated in yeast cells due to expression of a P450 reductase were assessed using dihydroethidium fluorescence assay. Reactive oxygen species reacts with dihydroethidium to produce ethidium bromide which binds to the nuclear DNA and emits red fluorescence. Dihydroethidine is one of the best reagents available for measuring intracellular production of reactive oxygen species. After overnight induction of a P450 reductase, the cultures were analysed for induction of reactive oxygen species. The control (wt-hRD) and test (ΔN1hRD-M, ΔN1hRD-HDEL, ΔN2hRD-HDEL) yeast cultures were washed in sterile PBS and then incubated with dihydroethidium (5 μM final concentration) for 30 min. After washing with sterile PBS twice (to remove the extracellular dye), the samples were transferred into 96-well black plates with transparent bottom (COSTAR®). Fluorescence was measured using a BIO-TEK® plate reader. Excitation and emission wavelengths were 260 and 610 nm respectively. The percent induction in the formation of reactive oxygen species was calculated by comparing with cultures where genes were not induced.
# CYP1A2 [2] = molecular target: T1, CYP1A2; assay type: biochemical
molecule,measurement,setting,value
B1,Relative Amounts of CYP2D6 Obtained,CYP2D6,3 ± 10%
same,Relative Amounts of CYP1A2 Obtained,CYP1A2 [1],3.2 ± 10%
same,ROS produced,yeast cells,far less ROS
same,pmoles of CYP1A2/mg of total protein (Relative Amounts),CYP1A2 [2],4 ± 10%
